For two substances, percent of uPA converted to the complex form and bound radioactivity results are on record in publication PMC2120674.

Experiment [1] has as its target two chain urokinase-type plasminogen activator (uPA). The experiment is described as follows: SDS-PAGE of the protease-serpin complex.
Experiment [2] deals with human urokinase-type plasminogen activator receptor (uPAR) expressed in mouse LB6 clone 19 cells (human) (UniProt Q03405). Kind of experiment: radioligand binding.
Sequence of UniProt Q03405 (Q03405 23-305): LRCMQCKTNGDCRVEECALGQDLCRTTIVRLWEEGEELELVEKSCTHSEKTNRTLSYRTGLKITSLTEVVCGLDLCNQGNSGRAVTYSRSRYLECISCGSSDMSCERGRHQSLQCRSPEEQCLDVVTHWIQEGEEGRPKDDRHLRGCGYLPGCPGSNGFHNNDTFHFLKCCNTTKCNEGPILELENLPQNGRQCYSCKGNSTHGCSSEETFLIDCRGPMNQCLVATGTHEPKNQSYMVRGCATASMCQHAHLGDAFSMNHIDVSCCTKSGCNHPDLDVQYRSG

In experiment [1], “plasminogen activator inhibitor type-1 (PAI-1), recombinant active (from UniProt P05121 24-402) (natural protein)” displayed a percent of uPA converted to the complex form of over 90%.

In the case of “uPA-PAI-1 complex (urokinase with plasminogen activator inhibitor type-1) (from UniProt P05121 24-402)”, in experiment [2], the bound radioactivity at 4C (with cycloheximide) amounted to 19.4 fmol/well and the bound radioactivity at 4C (without cycloheximide) was determined as 18.7 fmol/well.
